Assay results reported in patent publication US20120021995A1 (published 2012).
Positions count from the first letter of the chain named.

B1: 064-40.1C7 (designed binder)
chain: ALQTVCLKGTKVHMKCFLAFTQTKTFHEASEDCISRGGTLSTPQTGSENDALYEYLRQSVGNEAEIWLGLNGWLEGVGWVDMTGARIAYKNWETEITAQPDGGGGVRWENCAVLSGAANGKWFDKRCRDQLPYICQFGIV
notes: on phage
B2: 014-42.3G8 (designed binder)
chain: B1 chain with E75Q, G104R, V106W, R107P
notes: on phage
B3: 014-40.3E11 (designed binder)
chain: B1 chain with W73Y, E75A, V77Y, G104P, G105S, V106I, R107W, W108R
notes: on phage
B4: 014-40.3B3 (designed binder)
chain: B1 chain with W73Y, L74M, E75S, V77Y, G104M, G105M, V106A
notes: on phage
B5: 014-40.3A3 (designed binder)
chain: B1 chain with W73F, L74M, E75V, V77R, G104S, G105M, V106W, R107P
notes: on phage
B6: 029-62.2B3 (designed binder)
chain: ALQTVCLKGTKVHMKCFLAFTQTKTFHEASEDCISRGGTLSTPQTGSENDALYEYLRQSVGNEAEIWLGLNRYHVQALWVDMTGARIAYKNWETEITAQPDGGRVRPRENCAVLSGAANGKWFDKRCRDQLPYICQFGIV
notes: on phage
B7: 014-40.3E9 (designed binder)
chain: ALQTVCLKGTKVHMKCFLAFTQTKTFHEASEDCISRGGTLSTPQTGSENDALYEYLRQSVGNEAEIWLGLNPFRVPQWWVDMTGARIAYKNWETEITAQPDGGYGPVQENCAVLSGAANGKWFDKRCRDQLPYICQFGIV
notes: on phage
B8: 014-42.3D9 (designed binder)
chain: B1 chain with W73Y, E75A, G104R, V106F
notes: on phage
B9: 029-62.2C5 (designed binder)
chain: B7 chain with P72V, F73R, V75M, P76G, Q77F, W78H, Y104R, G105V, P106A, Q108G
notes: on phage
B10: 064-21.1A5 (designed binder)
chain: B1 chain with W73F, E75Q, V77N, G104M, G105W, V106D
notes: on phage
B11: 014-40.3H2 (designed binder)
chain: ALQTVCLKGTKVHMKCFLAFTQTKTFHEASEDCISRGGTLSTPQTGSENDALYEYLRQSVGNEAEIWLGLNMVTRPPYWVDMTGARIAYKNWETEITAQPDGGWVMSFENCAVLSGAANGKWFDKRCRDQLPYICQFGIV
notes: on phage
B12: 014-40.3B2 (designed binder)
chain: B1 chain with W73Y, L74I, V77T, G104S, G105N, V106W, R107A
notes: on phage
B13: 029-62.4F5 (designed binder)
chain: B11 chain with M72I, V73Q, T74C, R75S, Y78L, W104A, M106Q, S107Q, F108Q
notes: on phage
B14: 029-61.1A5 (designed binder)
chain: B1 chain with E75M, V77T, G104W, G105W, V106N
notes: on phage
B15: 014-42.3C7 (designed binder)
chain: B1 chain with V77Y, G104T, G105W, V106W, R107E
notes: on phage
B16: 029-62.7D10 (designed binder)
chain: B6 chain with R72G, Y73L, H74A, V75R, A77Q, L78G, R104K, V105G
notes: on phage

The binders below were run against T1, recombinant human TRAIL R1 (DR4)/Fc chimera (human, UniProt O00220 24-239) (assay: phage ELISA on DR4/Fc).
T1 construct: bought (R&D Systems); not shown: Fc of the bought chimera (R&D Systems)
T1 sequence: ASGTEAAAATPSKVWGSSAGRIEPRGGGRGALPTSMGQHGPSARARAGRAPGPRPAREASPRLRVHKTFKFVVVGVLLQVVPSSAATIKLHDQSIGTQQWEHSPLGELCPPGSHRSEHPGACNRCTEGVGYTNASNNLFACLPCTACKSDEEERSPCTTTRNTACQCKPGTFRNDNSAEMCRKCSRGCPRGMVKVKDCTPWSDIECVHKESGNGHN
Procedure: The remaining overnight culture was used to make a master stock plate by adding 100 μL of 50% glycerol to each well and storing at −80° C. The replica culture plate was grown at 37° C. with shaking at 250 rpm for approximately 2 hrs until the OD₆₀₀ was 0.5-0.7. The wells were then infected with K07 helper phage to 5×10⁹ pfu/mL mixed and incubated at 37° C. for 30 minutes without shaking, then incubated an addition 30 minutes at 37° C. with shaking at 250 rpm. The cultures were then spun down at 2500 rpm and 4° C. for 20 minutes. The supernatants were removed from the wells and the bacterial cell pellets were re-suspended in 500 μL of 2xYT containing 50 μg/mL carbenicillin and 50 μg/mL kanamycin. An air-permeable membrane was placed on the culture block and cells were grown overnight at room temperature with shaking at 250 rpm.
On day 3, cultures were spun down and supernatants containing the phage were blocked with 3% milk/PBS for 1 hr at room temperature. An initial Phage ELISA was performed using 75-100 ng of antigen bound per well. Non-specific binding was measured using 75-100 ng of human IgG1 Fc per well. DR4/Fc antigen (R&D Systems)-coated wells and IgG Fc coated wells were prepared fresh the night before by binding the above amount of antigen diluted in 100 μL of PBS per well. Antigen plates were incubated overnight at 4° C. then for 1 hour at 37° C., washed twice with PBS/0.05% Tween 20 and twice with PBS, and then blocked with 3% milk/PBS for 1 hr at 37° C. prior to the ELISA. Blocked phage were bound to blocked antigen-bound plates for 1 hr then washed twice with 0.05% Tween 20/PBS and then twice more with PBS. A HRP-conjugated anti-M13 secondary antibody diluted in 3% milk/PBS was then applied, with binding for 1 hr and washing as described above. The ELISA signal was developed using 90 μL TMB substrate mix and then stopped with 90 μL 0.2 M sulfuric acid, then ELISA plates were read at 450 nm. […] Secondary ELISA screens were performed similarly to the protocol detailed above.
B1: binds.
B2: binds.
B3: binds.
B4: binds.
B5: binds.
B6: binds.
B7: binds.
B8: binds.
B9: binds.
B10: binds.
B11: binds.
B12: binds.
B13: binds.
B14: binds.
B15: binds.
B16: binds.
